A short description of assay [1]: Lipid hydroperoxide assay in UV irradiated and non-irradiated plasma. It counts as biochemical. The conditions noted are these: 300 μg RoxP in 500 μl blood, plasma both irradiated (UVA/UVB) and non-irradiated. Here is the method: Hydroperoxides react with Fe^2+ ions to produce Fe^3+ ions which are detected using thiocyanate ion as chromogen. Lower abundance of Fe^3+ ions results in lowered absorbance, indicating lower level of lipid hydroperoxides in irradiated plasma.
Blood was collected in EDTA tubes. Samples containing 500 μl blood+150 μl RoxP (300 μg RoxP), or 500 μl blood+150 μl PBS, were subjected to irradiation:
UVA—irradiation 3×5000 μJ/cm^2; tubes were rotated between irradiation steps; or
Controls having composition identical to the samples, but not irradiated, were included in the experiment.
The blood samples were centrifuged at 1000×g, plasma was collected and frozen at −80° C.
Lipid hydroperoxides were quantified using lipid hydroperoxide assay kit (Cayman Chemical, item no. Item No. 705002).

Another assay is described as follows: Ferrozine assay. As to conditions: incubation 17 hours. It counts as biochemical. Here is the method: The reagents used in the ferrozine assay included 100 μl of 50 mM iron ammonium dodecahydrate, 100 μl 2 mM ferrozine in H2O, and RoxP (50 μl) resulting in various RoxP concentrations indicated in the graph, diluted from a stock solution of 2 mg/ml RoxP in PBS. Incubation was Incubation 17 hours.

Assay [2] can be described thus: Singlet Oxygen Sensor Green assay with UV-exposed porphyrins. Format: biochemical. As to conditions: 1 μM Coproporphyrin III or Protoporphyrin IX, 10 min UV lamp, varying amounts of RoxP. The protocol: The Singlet Oxygen Sensor Green dye was dissolved in Methanol and added in PBS buffer to reach a final concentration of 0.4 μM. This solution was distributed in a clear 96 well plate. To the wells 1 μM Coproporphyrin III, or 1 μM Protoporphyrin IX was added. Then varying amounts of RoxP were added. Each condition was set up as 4 replicas. Two of the replicas were covered by aluminium foil during the exposure, while two wells were exposed for 10 min to a UV lamp. After exposure, the fluorescence of the Singlet Oxygen Sensor Green dye was read out indicating the amount of singlet oxygen generated.

The next assay deals with healthy subjects. Kind of assay: UVA/UVB-irradiation study in human subjects: skin color a* (erythema) by Chromameter. It counts as in vivo. As to conditions: topical, 1.25 MED UV, n=7. The protocol: The objective of this study was to assess the UV-protection potential of three compositions containing RoxP in 7 healthy subjects by measuring the antioxidative effect and skin erythema. Oxidative stress was induced by exposition to UVA- and UVB-light to the skin on the upper back. The anti-oxidative activity of the test products was evaluated by measurement of sebum lipid oxidization levels (concentration of squalene monohydroperoxide) of swab-samples from the skin surface. The potential was assessed after two applications of RoxP in comparison to water, an untreated control and one hydrophilic standard antioxidant (H1) after induction of a light sunburn (1.25 MED). […] Additionally, the UV-protection potential of the products was evaluated by measuring the produced erythema (Chromameter). […]
Erythema was evaluated (Chromameter) at t1=baseline before irradiation, t2=30 to 50 minutes after irradiation, and t3=16 to 24 hours after irradiation. Squalene monohydroperoxide (SQOOH) was quantified at 25 to 45 minutes after irradiation. […]
On Day 2, subjects returned to the Study Site 20±4 hours after irradiation. […] The reading of the MED was performed and the irradiation time for 1 MED was determined. The correct dose for the irradiation of test areas was calculated by multiplying the irradiation dose of 1 MED with the factor for irradiation (1.25). […]

We go through one molecule from patent US20220000762A1, “COMPOSITIONS FOR TREATING OXIDATIVE STRESS-ASSOCIATED SKIN DISEASES AND SKIN AGEING AND DIAGNOSIS OF OXIDATIVE STRESS-ASSOCIATED SKIN DISEASES” (priority 2019, published 2022).

B1: RoxP: radical oxygenase of Propionibacterium acnes, secreted antioxidant protein of C. acnes; SEQ ID NO: 1 for strain KPA171202 (protein)
chain: MFVQIAASLAAASSIALGIPGAATPIDESQLPVGPQVSVTDSAQHTGPFAASSPLTITVKPGAPCVRADGYQESMVTRVLDDKGHQVWTGTFDESKLIGGTGLGTATFHVGSPAAAFNFHGSERTTYRTLSYCAYPHYVNGTRERLSQVSVKTFMVDPALN
modifications: Cutibacterium acnes
B1: the lipid hydroperoxide levels entry in assay [1] is recorded as “reduced”. The “reduction of Fe^3+ to Fe^2+” value in the assay “Ferrozine assay” was “confirmed reduction of Fe^3+ to Fe^2+”. Also, the “generation of radicals formed through the porphyrins (singlet oxygen)” value in assay [2] is “efficiently inhibited”. Besides, in the assay on healthy subjects (during 24 hours, water control 6 units), the “increase of skin color a* (median)” value turned out to be 3.4 units. The “erythema 30-50 min after UV irradiation” value with healthy subjects was “less erythrema than the water control”.
